In doi:10.1101/641308:

Target: OcwA (Outer cell-wall protein A), nonaheme cytochrome TherJR_2595 from Thermincola potens JR (Thermincola potens JR)
Experiment: SEC

A stoichiometry N of 2 was found for “OcwA (Outer cell-wall protein A), nonaheme cytochrome TherJR_2595 from Thermincola potens JR (natural protein)” in this work.
